Patent publication US20170369592A1, “NOVEL ANTI-FIBROBLAST ACTIVATION PROTEIN (FAP) ANTIBODIES AND USES DERIVED THEREOF” (Mabimmune Diagnostics AG, priority 2015, published 2017)

How the values were obtained:
[1] = molecular target: T1, FAP (Homo sapiens, UniProt Q12884); test: Binding specificity ELISA versus CD26 and unrelated human antigens; conditions: detection antibody at 20, 4 and 0.8 nM
T1 sequence (Q12884 1-760): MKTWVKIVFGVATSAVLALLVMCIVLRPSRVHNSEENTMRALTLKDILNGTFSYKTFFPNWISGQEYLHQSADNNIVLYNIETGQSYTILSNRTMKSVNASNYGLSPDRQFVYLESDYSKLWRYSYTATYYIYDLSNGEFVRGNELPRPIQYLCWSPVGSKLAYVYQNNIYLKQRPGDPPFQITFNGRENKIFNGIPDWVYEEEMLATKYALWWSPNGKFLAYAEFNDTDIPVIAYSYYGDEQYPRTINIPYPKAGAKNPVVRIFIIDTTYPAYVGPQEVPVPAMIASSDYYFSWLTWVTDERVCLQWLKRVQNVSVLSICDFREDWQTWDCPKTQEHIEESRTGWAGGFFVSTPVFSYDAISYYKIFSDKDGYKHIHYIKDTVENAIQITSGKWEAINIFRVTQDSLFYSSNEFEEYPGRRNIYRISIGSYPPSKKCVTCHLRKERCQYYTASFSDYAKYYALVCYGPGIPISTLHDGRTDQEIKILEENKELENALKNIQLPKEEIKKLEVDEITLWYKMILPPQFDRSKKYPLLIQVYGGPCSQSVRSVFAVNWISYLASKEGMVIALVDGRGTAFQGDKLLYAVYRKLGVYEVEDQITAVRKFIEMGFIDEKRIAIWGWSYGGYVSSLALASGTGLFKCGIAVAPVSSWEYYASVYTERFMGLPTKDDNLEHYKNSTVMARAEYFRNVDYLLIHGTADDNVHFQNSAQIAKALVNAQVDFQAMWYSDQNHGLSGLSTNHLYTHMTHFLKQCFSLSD
Procedure: A mouse anti-6×-histidine tag antibody (Clonetech) was coated at a concentration of 3 μg/ml in PBS to a 96 well ELISA plate, the plates were then blocked with 5% BSA in PBS, and enzymatically active recombinant human FAP with an N-terminus 6× histidine tag was added to the plates to be captured. The binding efficiency of NI-206.82C2 (at 20 nM, 4 nM, and 0.8 nM) against sFAP was then tested by 1 hour incubation, followed by washing with PBS and detection with an HRP-labelled goat anti-human antibody (Jackson Immunoresearch) using a colormetric assay. To assess NI-206.82C2 binding other targets, recombinant human CD26 and fourteen other unrelated recombinant human proteins (A-N) were individually added to a 96-well ELISA plate in triplicate, and the binding efficacy of NI-206.82C2 was evaluated. (FIG. 7A)

[2] = system: obstructive human coronary thrombi and aortic atherosclerotic plaque; test: Confocal immunofluorescence on coronary thrombi and atherosclerotic plaque; conditions: Cyanine 3 labelled antibody
Procedure: NI-206.82C2 was labelled with Cyanine 3 for fluorescent imaging (Cy3 conjugation kit: Innova Biosciences, 340-0030) and antibody labelling was validated using a spectophotometer. Cryosections from myocardial infarction causing obstructive human coronary thrombi (FIG. 14, A) and human aortic atherosclerotic plaque (FIG. 14, B) were fixed for 5 minutes in ice cold acetone and allowed to dry for 10 minutes before washing in PBS. The sections were then incubated for 1 hr at room temperature in 5% BSA in PBS, and then incubated with Cyanine 3 labelled antibodies overnight at 4° C., before washing three times in PBS before incubation with DAPI at 0.5 μg/mL. Sections were then washed three additional times in PBS and mounted in Lisbeth's mounting medium before imaging on a SP8 confocal microscope (Leica Microsystems).

[3] = molecular target: T2, transmembrane human FAP (Homo sapiens, UniProt Q12884); test: Flow cytometry on FAP-HEK293 cells at pH 7.4, 6.8, 6.4; type: cell-based; conditions: pH 6.4 and 6.8 vs pH 7.4, FAP-HEK293 cells, Cy5 labelled
T2 construct: retrovirus encoding full length human FAP cDNA; host or cells: HEK293 (FAP-HEK293, G418 selected)
T2 sequence (Q12884 1-760): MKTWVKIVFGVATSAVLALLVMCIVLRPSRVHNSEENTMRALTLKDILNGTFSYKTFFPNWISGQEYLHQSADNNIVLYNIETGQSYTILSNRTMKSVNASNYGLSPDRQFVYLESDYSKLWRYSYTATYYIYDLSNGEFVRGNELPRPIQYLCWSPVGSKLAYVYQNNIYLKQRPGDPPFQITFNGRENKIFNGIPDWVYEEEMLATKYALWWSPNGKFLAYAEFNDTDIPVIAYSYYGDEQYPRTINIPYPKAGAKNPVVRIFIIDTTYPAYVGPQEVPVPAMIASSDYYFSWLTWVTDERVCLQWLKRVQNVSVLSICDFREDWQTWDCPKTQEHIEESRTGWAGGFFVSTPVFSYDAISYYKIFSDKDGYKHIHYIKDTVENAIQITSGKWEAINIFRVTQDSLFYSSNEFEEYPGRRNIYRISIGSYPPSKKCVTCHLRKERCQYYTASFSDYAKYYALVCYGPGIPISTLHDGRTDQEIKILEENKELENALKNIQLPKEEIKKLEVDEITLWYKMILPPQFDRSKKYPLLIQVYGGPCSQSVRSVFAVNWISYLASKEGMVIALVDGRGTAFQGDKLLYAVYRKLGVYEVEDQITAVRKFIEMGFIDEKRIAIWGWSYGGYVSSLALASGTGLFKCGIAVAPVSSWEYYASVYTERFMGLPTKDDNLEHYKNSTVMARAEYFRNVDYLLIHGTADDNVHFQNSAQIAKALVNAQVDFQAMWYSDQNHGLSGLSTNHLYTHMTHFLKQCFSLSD
Procedure: To evaluate the binding of NI-206.82C2 to transmembrane human FAP, an FAP expressing HEK293 cell line was received from the National Institutes of Health, Bethesda, Md. The generation of this FAP expressing HEK293 cells is described in: J. Exp. Med. 2013 Vol. 210 No. 6 1125-1135.
HEK293 cells were transduced with retrovirus encoding full length human FAP cDNA. Cloning was performed using Fast Cloning Pack and FastDigest restriction enzymes (both from Fermentas). Transient retroviral supernatants were generated by transfecting 293GP cells with the FAP plasmid using Lipofectamine 2000 (Invitrogen). Retroviral supernatants were collected at 48 h after transfection and centrifuged onto Retronectin-coated (10 μg/ml; Takara), non-tissue culture-treated 6-well plates at 2,000 G for 2 h at 32° C. These retroviral supernatants where then used to transduce HEK293 cells overnight. Transduced FAP-HEK293 cells were selected with 1 mg/ml G418 (CellGro). […]
To analyze antibody binding, fluorescent activated flow cytometry was performed using a BD Fortesa device for forward scatter, side scatter, and the mean fluorescent intensity (MFI) of the Cy5 channel was recorded using a […] laser excitation and 600/20 filter. Viable cells were gated by forward and side scatter, and singlets/doublet exclusion, and the MFI for Cy5 was quantified using FlowJo software Version 10.1.

B1: NI-206.82C2: recombinant human memory B cell-derived monoclonal anti-FAP IgG1 antibody, variable regions in FIG. 1A, FAP inhibitory (antibody, V domains shown)
VH: QVQLQQSGPGLVKPSQTLSLTCAISGDSVSSNSVTWNWIRQSPSRGLEWLGRTYYRSKWYNDYAVSVKGRITINPDTSKNQFYLQLKSVTPEDAAVYYCARDSSILYGDYWGQGTLVTVSS
VL: QAVLTQPSSLSASPGASASLTCTLPSGINVGTYRIFWFQQKPGSPPQYLLSYKSDSDNHQGSGVPSRFSGSKDASANAGILLISGLQSEDEADYYCMIWHSSAWVFGGGTKLTVL
- colorimetric signal against recombinant human FAP versus CD26 and unrelated human antigens [1]: significantly greater
- binding to obstructive human coronary thrombi and aortic atherosclerotic plaque [2]: binds
- binding to transmembrane FAP, pH dependence (Δ MFI) [3]: higher affinity at lower pHs
